Measurements published in the supplement of paper PMC10567573.
± gives the standard deviation.

Assay: protein stability index of a GFP-peptide fusion (GPS, HEK-293T) (PSI 1-6); higher = more stable
Settings: c terminus: a fixed tail appended
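Note: 24-mer peptide tiles fused after GFP, lentivirally expressed, FACS-sorted into six equal bins by GFP/DsRed ratio, decoded by Illumina sequencing, PSI is the read-weighted mean bin number.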

QWLKDKILSEEGRRQQAKLKELQA [KCNAB2] gave a protein stability index (treatment: DMSO) of 3.13 ± 0.56 and a protein stability index (treatment: MLN4924 1 uM, 8 h) of 3.32 ± 0.13.

In the case of LDSSEGSSQEDEDLGLSEGSSQDS [SPANXN3], the protein stability index (treatment: DMSO) is reported as 5.66 ± 0.19 and the protein stability index (treatment: MLN4924 1 uM, 8 h) is reported as 5.64 ± 0.23.

For RERFMECLMIGRDLVRLLQNVARI [INTS3], the protein stability index (treatment: DMSO) was 2.31 ± 0.28 and the protein stability index (treatment: MLN4924 1 uM, 8 h) was 2.54 ± 0.31.

ASSASLEPMWSGSTMRRMALRPTA [EMID1] gave a protein stability index (treatment: DMSO) of 3.43 ± 0.23 and a protein stability index (treatment: MLN4924 1 uM, 8 h) of 3.64 ± 0.43.

In the case of QVSPVRRAPSRRHGVRAKVQPQAR [CPN1], the protein stability index (treatment: DMSO) is reported as 4.88 ± 0.12 and the protein stability index (treatment: MLN4924 1 uM, 8 h) is reported as 4.68 ± 0.13.

Work on GEVLKSSTFSSGPSDKMKWCLRVN [SPOPL] yielded a protein stability index (treatment: DMSO) of 2.46 ± 0.26 and a protein stability index (treatment: MLN4924 1 uM, 8 h) of 2.43 ± 0.23.

Work on NLLEKFFEMKKGQCKDALEIYKRF [SNAP91] yielded a protein stability index (treatment: DMSO) of 2.41 ± 0.46 and a protein stability index (treatment: MLN4924 1 uM, 8 h) of 2.69 ± 0.8.

ARQETKEMARKVIEHCSNFKEENM [ZER1] showed a protein stability index (treatment: DMSO) of 4.74 ± 0.23 and a protein stability index (treatment: MLN4924 1 uM, 8 h) of 4.57 ± 0.45.

For TSSTFGLQDGNLRAPHKESTLPRS [CHCHD6], the protein stability index (treatment: DMSO) was 4.42 ± 0.34 and the protein stability index (treatment: MLN4924 1 uM, 8 h) was 4.61 ± 0.14.

Work on EENALWEEERAFWMENNGHVAGEQ [CCDC70] yielded a protein stability index (treatment: DMSO) of 4.99 ± 0.22 and a protein stability index (treatment: MLN4924 1 uM, 8 h) of 5.29 ± 0.13.

Work on SVGCIFAEMFRRKPLFCGNSEADQ [CDK4] yielded a protein stability index (treatment: DMSO) of 2.37 ± 0.2 and a protein stability index (treatment: MLN4924 1 uM, 8 h) of 2.58 ± 0.23.

With KARSNSTLSKSEYMVIEEGGMNHS [KCNA3] the protein stability index (treatment: DMSO) was 4.57 ± 0.38 and the protein stability index (treatment: MLN4924 1 uM, 8 h) was 4.33 ± 0.15.

For FYKDWWNSTSYSNYYRTWNVVVHD [SOAT1], the protein stability index (treatment: DMSO) was 2.46 ± 0.39 and the protein stability index (treatment: MLN4924 1 uM, 8 h) was 2.15 ± 0.31.

For LDLAGNNIPGDVLRAVEQAMGHSQ [LRRC45], the protein stability index (treatment: DMSO) was 4.45 ± 0.39 and the protein stability index (treatment: MLN4924 1 uM, 8 h) was 4.44 ± 0.28.

YEFQIPYICPDYQSYFKTIEDFQQ [KRT36] showed a protein stability index (treatment: DMSO) of 2.28 ± 0.3 and a protein stability index (treatment: MLN4924 1 uM, 8 h) of 2.07 ± 0.3.

Sequence SKAAAGKMNLYESFAQATQLGDLH [INTS3] has a protein stability index (treatment: DMSO) of 3.63 ± 0.25 and a protein stability index (treatment: MLN4924 1 uM, 8 h) of 3.58 ± 0.23.

Work on IYGRSQNPVQPIGPQTPKACDSKL [MMP1] yielded a protein stability index (treatment: DMSO) of 4.15 ± 0.17 and a protein stability index (treatment: MLN4924 1 uM, 8 h) of 4.08 ± 0.12.

In the case of MAAGSTTLHAVEKLQVRLATKTEP [ELOA2], the protein stability index (treatment: DMSO) is reported as 3.62 ± 0.23 and the protein stability index (treatment: MLN4924 1 uM, 8 h) is reported as 3.61 ± 0.36.

RKTVCHNGVLGLSRLLFFLLGFLR [LPCAT4] gave a protein stability index (treatment: DMSO) of 2.92 ± 0.35 and a protein stability index (treatment: MLN4924 1 uM, 8 h) of 3.04 ± 0.38.

In the case of LPKELPADAVNLTIPASLDLSPLL [PLAGL1], the protein stability index (treatment: DMSO) is reported as 3.32 ± 0.19 and the protein stability index (treatment: MLN4924 1 uM, 8 h) is reported as 3.48 ± 0.28.

Work on LYLFGGHHSRGNTNKFYMLDSRST [KLHDC2] yielded a protein stability index (treatment: DMSO) of 2.16 ± 0.12 and a protein stability index (treatment: MLN4924 1 uM, 8 h) of 2.17 ± 0.18.

For PPARGPRMSYGGSTCHAYSNTRDR [RBMY1A1], the protein stability index (treatment: DMSO) was 4.1 ± 0.098 and the protein stability index (treatment: MLN4924 1 uM, 8 h) was 4.07 ± 0.12.

For TQKLSHSTKPSGSPLEEKHDQCKC [MATN2], the protein stability index (treatment: DMSO) was 5.15 ± 0.38 and the protein stability index (treatment: MLN4924 1 uM, 8 h) was 4.94 ± 0.29.

SGRSGHNTRGTGSSSSGVLMVGPN [CSNK1G3] showed a protein stability index (treatment: DMSO) of 4.13 ± 0.24 and a protein stability index (treatment: MLN4924 1 uM, 8 h) of 4.18 ± 0.16.

In the case of HFSQGSALILHQRIHSGEKPYGCV [ZNF24], the protein stability index (treatment: DMSO) is reported as 2.24 ± 0.37 and the protein stability index (treatment: MLN4924 1 uM, 8 h) is reported as 2.55 ± 0.47.

In the case of IVNQWSEKFSDEGDSDSALDSVSP [DLC1], the protein stability index (treatment: DMSO) is reported as 5.32 ± 0.18 and the protein stability index (treatment: MLN4924 1 uM, 8 h) is reported as 5.24 ± 0.23.

Sequence PLLKDEGFAVKALWGRTQEEAEEL [GFOD1] has a protein stability index (treatment: DMSO) of 5 ± 0.62 and a protein stability index (treatment: MLN4924 1 uM, 8 h) of 4.915 ± 0.038.

With KQECLITTFQDVYFVSESFEDAKE [TPH1] the protein stability index (treatment: DMSO) was 4.08 ± 0.73 and the protein stability index (treatment: MLN4924 1 uM, 8 h) was 4.45 ± 0.36.

Work on VAAVLEAVAQTAHLPADSEVTLEA [RSAD1] yielded a protein stability index (treatment: DMSO) of 3.8 ± 0.17 and a protein stability index (treatment: MLN4924 1 uM, 8 h) of 3.94 ± 0.37.

With RQLDPSNCLGIRAFADTHSCRELL [KLHL20] the protein stability index (treatment: DMSO) was 3.07 ± 0.32 and the protein stability index (treatment: MLN4924 1 uM, 8 h) was 3.23 ± 0.3.

Work on TQGQEKMMMMGPKEEEQSCEYETR [ZNF232] yielded a protein stability index (treatment: DMSO) of 5.42 ± 0.38 and a protein stability index (treatment: MLN4924 1 uM, 8 h) of 5.59 ± 0.16.

With WGPSGQLMGEIAKATFMYEQFPEL [CLINT1] the protein stability index (treatment: DMSO) was 1.97 ± 0.38 and the protein stability index (treatment: MLN4924 1 uM, 8 h) was 2.06 ± 0.23.

VLEENGEKNQVQLGKLEATIKSLS [SASS6] showed a protein stability index (treatment: DMSO) of 3.98 ± 0.43 and a protein stability index (treatment: MLN4924 1 uM, 8 h) of 3.79 ± 0.16.

Sequence WMQANYDPLSDSDSMTSQAKPEAL [ELOA2] has a protein stability index (treatment: DMSO) of 4.72 ± 0.12 and a protein stability index (treatment: MLN4924 1 uM, 8 h) of 4.54 ± 0.26.

SVPLAYFLLSQQTDLPECEQSSAR [TCF25] showed a protein stability index (treatment: DMSO) of 3.07 ± 0.25 and a protein stability index (treatment: MLN4924 1 uM, 8 h) of 2.89 ± 0.5.

Work on MLTTRVFSLVGKRAISTSVCVRAH [COX4I1] yielded a protein stability index (treatment: DMSO) of 2.56 ± 0.64 and a protein stability index (treatment: MLN4924 1 uM, 8 h) of 2.4 ± 0.59.
